# Data reported in patent publication US10588972B2, “Phthalocyanine probes and uses thereof” (LI-COR, INC., priority 2014, dated 2020).
# Several values for one entry are separate records, joined by “and”; a condition that tells them apart may be missing. Equal entries are not always repeated. Where two headings read alike, the source gives them in different places.
# B1: 700DX-EGF (conjugate, UniProt P01133 23-1207, looked up)
# Pro-epidermal growth factor: PQHWSCPEGTLAGNGNSTCVGPAPFLIFSHGNSIFRIDTEGTNYEQLVVDAGVSVIMDFHYNEKRIYWVDLERQLLQRVFLNGSRQERVCNIEKNVSGMAINWINEEVIWSNQQEGIITVTDMKGNNSHILLSALKYPANVAVDPVERFIFWSSEVAGSLYRADLDGVGVKALLETSEKITAVSLDVLDKRLFWIQYNREGSNSLICSCDYDGGSVHISKHPTQHNLFAMSLFGDRIFYSTWKMKTIWIANKHTGKDMVRINLHSSFVPLGELKVVHPLAQPKAEDDTWEPEQKLCKLRKGNCSSTVCGQDLQSHLCMCAEGYALSRDRKYCEDVNECAFWNHGCTLGCKNTPGSYYCTCPVGFVLLPDGKRCHQLVSCPRNVSECSHDCVLTSEGPLCFCPEGSVLERDGKTCSGCSSPDNGGCSQLCVPLSPVSWECDCFPGYDLQLDEKSCAASGPQPFLLFANSQDIRHMHFDGTDYGTLLSQQMGMVYALDHDPVENKIYFAHTALKWIERANMDGSQRERLIEEGVDVPEGLAVDWIGRRFYWTDRGKSLIGRSDLNGKRSKIITKENISQPRGIAVHPMAKRLFWTDTGINPRIESSSLQGLGRLVIASSDLIWPSGITIDFLTDKLYWCDAKQSVIEMANLDGSKRRRLTQNDVGHPFAVAVFEDYVWFSDWAMPSVMRVNKRTGKDRVRLQGSMLKPSSLVVVHPLAKPGADPCLYQNGGCEHICKKRLGTAWCSCREGFMKASDGKTCLALDGHQLLAGGEVDLKNQVTPLDILSKTRVSEDNITESQHMLVAEIMVSDQDDCAPVGCSMYARCISEGEDATCQCLKGFAGDGKLCSDIDECEMGVPVCPPASSKCINTEGGYVCRCSEGYQGDGIHCLDIDECQLGEHSCGENASCTNTEGGYTCMCAGRLSEPGLICPDSTPPPHLREDDHHYSVRNSDSECPLSHDGYCLHDGVCMYIEALDKYACNCVVGYIGERCQYRDLKWWELRHAGHGQQQKVIVVAVCVVVLVMLLLLSLWGAHYYRTQKLLSKNPKNPYEESSRDVRSRRPADTEDGMSSCPQPWFVVIKEHQDLKNGGQPVAGEDGQAADGSMQPTSWRQEPQLCGMGTEQGCWIPVSSDKGSCPQVMERSFHMPSYGTQTLEGGVEKPHSLLSANPLWQQRALDPPHQMELTQ
# modifications: Pro-epidermal growth factor IRDye 700DX conjugate
# Assays:
# Type in all cases: cell-based
# A431 cells [1] = system: A431 cells
# Description: A different LED source was tested and evaluated to determine if a second source of LED would yield a similar effect as the standard LED used. A straight forward evaluation was set up with four treatments (treatments A-D). The tests were performed in triplicate in order to examine reproducibility. The test included the following four treatments: treatment A of no probe and irradiation, treatment B of IRdye® 700DX-labeled EGF and no irradiation, treatment C of IRDye® 700DX-labeled EGF and irradiation, and treatment D of IRDye® 700DX-labeled panitumumab and irradiation. The probe dose was about 0.1 μM labeled panitumumab and 0.5 μM 700DX-labeled EGF. Irradiation was for 10 minutes at an irradiation dose of 32 J/cm^2.
# Significant and similar effects for both probes together and in triplicate thus providing clear evidence that IRDye® 700DX-labeled small protein can kill cells similarly to an IRDye 700DX-labeled antibody. Conditions for use of either probe may be unique to the individual probe. […] The fluorescent scale of the 700 nm images was the same for both treated sets of cells (FIGS. 12C-12D). Although the exact concentration of the antibody probe is not known, the signals from the different probes appear similar in level and intensity.
# HTB-186 cells = assay: Viability, cell number and microscopy morphology at 20 h post irradiation (Example 10)
# Description: This example illustrates the ability of IRDye® 700DX small molecule conjugates to induce apoptosis in cells, e.g., cancer cells. In this study HTB-186 cells (a desmoplastic cerebellar medulloblastoma cell line) were treated with IRDye® 700DX small molecule conjugates (IRDye® 700DX labeled chlorotoxin, anti-EGFR Affibody®, RGD peptide and EGF ligand). Apoptosis was measured by evaluating caspase 3/7 activity and mitochondrial membrane potential. Apoptosis can be characterized by a variety of cell morphological and biochemical changes including membrane blebbing, cell shrinkage, alteration of membrane asymmetry and permeability, and/or condensation of chromatin and nucleus (Coleman et al., Nat Cell Biol, 2001, 3(4):339-45, Bortner and Cidlowski, Biochem Pharmacol, 1998, 56(12):1549-59; van Engeland et al., Experimental Cell Research, 1997, 235:421-430).
# Microscopy images of cells in petri-dishes were captured at 20 h post irradiation. The images were captured in DIC and 700 nm to visualize the probe, and composite images were generated (DIC+700 nm) to visualize the overlay.
# To determine whether the treated cells are undergoing apoptosis, a caspase 3/7 assay and mitochondrial potential assay were performed. All cells from each treatment were recovered and processed accordingly. Table 8 below provides cells number, % viability, JC-1% shift, and % late apoptotic and dead cells as determined by caspase 3/7 assay.
# A431 cells [2] = assay: Photodynamic therapy effect on cell morphology and viability (Example 3); details: for effect on cell morphology: probe 0.25 μM
# Description: This example illustrates the effect of photodynamic therapy based on IRDye® 700DX dye conjugates on cell morphology. Other methods for evaluating changes in morphology during the PDT with additional tests of key apoptotic markers including caspase 3/7, annexin-V, vitality %, mitochondrial potential, localization (intracellular/membrane, endosomal, lysosomal), singlet oxygen generation, other radicals, etc. It was critical to identify important parameters for generating reproducible effects including irradiation level, incubation time, probe type and/or required dose to initiate cytotoxicity. By measuring these key indicators the actions of IRDye® 700DX in its ability to induce cytotoxicity was defined.
# FIGS. 6A-6B provide images of the controls which were A431 cells with no irradiation (NI) or with irradiation (I). The probe dose for the respective treatments was 0.25 μM and irradiation level was 16 J/cm^2. […] These are key features of cells undergoing apoptosis and/or necrosis.
# [3] = no irradiation (NI), 700DX-EGF 0.5 μM
# [4] = 32 J/cm^2, probe about 5 hours, 20 hours post irradiation, 700DX-RGD and 700DX-EGF 500 nM
molecule,measurement,setting,value
B1,effect on cells (morphology),"A431 cells [1]; irradiated 10 minutes, 32 J/cm^2",severely affected by the irradiating energy and were dying
same,Cells/mL,"A431 cells [1]; irradiated (I) 10 minutes, 32 J/cm^2, 700DX-EGF 0.5 μM, 700DX-Pan about 0.1 μM",2.8 × 10^5 Cells/mL and 4.1 × 10^5 Cells/mL and 3.8 × 10^5 Cells/mL
same,% Vitality,A431 cells [1]; [3],97.9% and 98.3% and 96.0%
same,Cells/mL,A431 cells [1]; [3],6.6 × 10^5 Cells/mL and 8.0 × 10^5 Cells/mL and 7.7 × 10^5 Cells/mL
same,VB-48 % necrotic,A431 cells [1]; [3],11% and 12% and 10%
same,cell morphology,"HTB-186 cells; 32 J/cm^2, 20 h post irradiation",appeared rounded and smaller
same,% Viability,HTB-186 cells; [4],75.7%
same,Cell #,HTB-186 cells; [4],0.7E6
same,cytotoxicity by cell viability,A431 cells [2]; 24 h post irradiation,only the probe treated with irradiation induced cytotoxicity
same,effect on cell morphology,A431 cells [2]; irradiation 16 J/cm^2,dramatically altered with condensation of nuclei and cell dehydration
same,effect on cell morphology,A431 cells [2]; no irradiation (NI),no deleterious effect on cell morphology
